{"source": "patent US20250145711A1", "about": "(Janssen / Centocor, published 2025)", "binders": {"B1": {"name": "CD3B1132 (scFv)", "scFv": "EVQLVQSGAEVKKPGESLRISCKASGYTFTRSTMHWVRQMPGKGLEWMGYINPSSAYTNYNPSFQGHVTLSADKSISTAYLQWSSLKASDTAMYYCARPQVHYDYNGFPYWGQGTLVTVSSGGSEGKSSGSGSESKSTGGSEIVLTQSPATLSLSPGERATLSCSASSSVSYMNWYQQKPGTSPRRLIYDSSKLASGIPARFSGSGSGRDYTLTISSLEPEDFAVYYCQQWSRNPPTFGGGTKVEIK"}, "B2": {"name": "CD3B1135 (scFv)", "scFv": "EIVLTQSPATLSLSPGERATLSCSASSSVSYMNWYQQKPGTSPRRLIYDSSKLASGIPARFSGSGSGRDYTLTISSLEPEDFAVYYCQQWSRNPPTFGGGTKVEIKGGSEGKSSGSGSESKSTGGSQVQLVQSGAEVKKPGSSVKVSCKASGYTFTRSTMHWVRQAPGQGLEWMGYINPSSAYTNYNQKFQGRVTLTADKSTSTAYMELSSLRSEDTAVYYCARPQVHYDYNGFPYWGQGTLVTVSS"}, "B3": {"name": "CD3B1129 (scFv)", "scFv": "QVQLVQSGAEVKKPGSSVKVSCKASGYTFTRSTMHWVRQAPGQGLEWMGYINPSSAYTNYNQKFQGRVTLTADKSTSTAYMELSSLRSEDTAVYYCARPQVHYDYNGFPYWGQGTLVTVSSGGSEGKSSGSGSESKSTGGSDIQLTQSPSSLSASVGDRVTITCSASSSVSYMNWYQQKPGTSPKRLIYDSSKLASGVPSRFSGSGSGTDYTLTISSLQPEDFATYYCQQWSRNPPTFGGGTKVEIK"}, "B4": {"name": "CD3B1128 (scFv)", "scFv": "QVVLTQSPAIMSAFPGEKVTMTCSASSSVSYMNWYQQKSGTSPKRWIYDSSKLASGVPARFSGSGSGTSYSLTISSMETEDAATYYCQQWSRNPPTFGGGTKLQITGGSEGKSSGSGSESKSTGGSQVQLQQSGAELARPGASVKMSCKASGYTFTRSTMHWVKQRPGQGLEWIGYINPSSAYTNYNQKFKDKATLTADKSSSTAYMQLSSLTSEDSAVYYCASPQVHYDYNGFPYWGQGTLVTVSA", "notes": "also called Murine LH; murine Cris-7 scFv (LH)"}, "B5": {"name": "PS3B1508 (bispecific antibody, human IgG1, lambda, L234A L235A)", "chain": "DIQMTQSPSSLSASVGDRVTITCRARQSIGTAIHWYQQKPGKAPKLLIKYASESISGVPSRFSGSGSGTDFTLTISSLQPEDFATYYCQQSGSWPYTFGQGTKLEIKGGSEGKSSGSGSESKSTGGSEVQLVESGGGLVKPGGSLRLSCAASGFTFSRYNMNWVRQAPGKGLEWVSSISTSSNYIYYADSVKGRFTFSRDNAKNSLDLQMSGLRAEDTAIYYCTRGWGPFDYWGQGTLVTVSSEPKSSDKTHTCPPCPAPEAAGGPSVFLFPPKPKDTLMISRTPEVTCVVVSVSHEDPEVKFNWYVDGVEVHNAKTKPREEQYNSTYRVVSVLTVLHQDWLNGKEYKCKVSNKALPAPIEKTISKAKGQPREPQVYTLPPSREEMTKNQVSLWCLVKGFYPSDIAVEWESNGQPENNYKTTPPVLDSDGSFFLYSKLTVDKSRWQQGNVFSCSVMHEALHNHYTQKSLSLSPGK", "heavy": "EVQLVESGGGLVQPGGSLRLSCAASGFTFSSYAMSWVRQAPGKGLEWVSAISGGIGSTYYADSVKGRFTISRDNSKNTLWLQMNSLRAEDTAVYYCAKDAVGATPYYFDYWGQGTLVTVSSASTKGPSVFPLAPSSKSTSGGTAALGCLVKDYFPEPVTVSWNSGALTSGVHTFPAVLQSSGLYSLSSVVTVPSSSLGTQTYICNVNHKPSNTKVDKKVEPKSCDKTHTCPPCPAPEAAGGPSVFLFPPKPKDTLMISRTPEVTCVVVSVSHEDPEVKFNWYVDGVEVHNAKTKPREEQYNSTYRVVSVLTVLHQDWLNGKEYKCKVSNKALPAPIEKTISKAKGQPREPQVYTLPPSREEMTKNQVSLSCAVKGFYPSDIAVEWESNGQPENNYKTTPPVLDSDGSFFLVSKLTVDKSRWQQGNVFSCSVMHEALHNRFTQKSLSLSPGK", "light": "QSVLTQPPSVSAAPGQKVTISCSGSSSNIGINYVSWYQQLPGTAPKLLIYDNNKRPSGIPDRFSGSKSGTSATLGITGLQTGDEADYYCGTWDSSLSAVVFGGGTKLTVLGQPKAAPSVTLFPPSSEELQANKATLVCLISDFYPGAVTVAWKADSSPVKAGVETTTPSKQSNNKYAASSYLSLTPEQWKSHRSYSCQVTHEGSTVEKTVAPTECS", "notes": "HC1 (Knob3): CD3W245-LH-scFv; HC2 (Hole3-RF) PSMB896-G100A-Fab-RF: IgG1 AAS; LC1 is given as NA; also called PS3B1508.003"}, "B6": {"name": "PS3B1396 (bispecific antibody, human IgG1, lambda, L234A L235A)", "chain": "EIVLTQSPATLSASPGERVTLSCSASSSVSYMNWYQQKPGQAPRRWIYDSSKLASGVPARFSGSGSGRDYTLTISSLEPEDFAVYYCQQWSRNPPTFGGGTKVEIKGGSEGKSSGSGSESKSTGGSQVQLVQSGAEVKKPGSSVKVSCKASGYTFTRSTMHWVKQAPGQGLEWIGYINPSSAYTNYNQKFQGRVTLTADKSTSTAYMELSSLRSEDTAVYYCASPQVHYDYAGFPYWGQGTLVTVSSEPKSSDKTHTCPPCPAPEAAGGPSVFLFPPKPKDTLMISRTPEVTCVVVSVSHEDPEVKFNWYVDGVEVHNAKTKPREEQYNSTYRVVSVLTVLHQDWLNGKEYKCKVSNKALPAPIEKTISKAKGQPREPQVYTLPPSREEMTKNQVSLWCLVKGFYPSDIAVEWESNGQPENNYKTTPPVLDSDGSFFLYSKLTVDKSRWQQGNVFSCSVMHEALHNHYTQKSLSLSPGK", "heavy": "B5 heavy", "light": "B5 light", "notes": "HC1 (Knob3): CD3B2030-N106A-scFv LH, HC2 (Hole3): PSMB896-G100A-Fab; LC1 is given as NA; also called PS3B1396.002"}, "B7": {"name": "CD3B1130 (scFv)", "scFv": "QVQLVQSGAEVKKPGSSVKVSCKASGYTFTRSTMHWVRQAPGQGLEWMGYINPSSAYTNYNQKFQGRVTLTADKSTSTAYMELSSLRSEDTAVYYCARPQVHYDYNGFPYWGQGTLVTVSSGGSEGKSSGSGSESKSTGGSEIVLTQSPATLSLSPGERATLSCSASSSVSYMNWYQQKPGTSPRRLIYDSSKLASGIPARFSGSGSGRDYTLTISSLEPEDFAVYYCQQWSRNPPTFGGGTKVEIK", "notes": "also called IGHV1-69*02-IGHJ1-01 / IGKV3-11*02-IGKJ4-01 grafted construct, HL"}, "B8": {"name": "CD3B1131 (scFv)", "scFv": "EVQLVQSGAEVKKPGESLRISCKASGYTFTRSTMHWVRQMPGKGLEWMGYINPSSAYTNYNPSFQGHVTLSADKSISTAYLQWSSLKASDTAMYYCARPQVHYDYNGFPYWGQGTLVTVSSGGSEGKSSGSGSESKSTGGSDIQLTQSPSSLSASVGDRVTITCSASSSVSYMNWYQQKPGTSPKRLIYDSSKLASGVPSRFSGSGSGTDYTLTISSLQPEDFATYYCQQWSRNPPTFGGGTKVEIK", "notes": "also called CD381131"}, "B9": {"name": "CD3B1133 (scFv)", "scFv": "DIQLTQSPSSLSASVGDRVTITCSASSSVSYMNWYQQKPGTSPKRLIYDSSKLASGVPSRFSGSGSGTDYTLTISSLQPEDFATYYCQQWSRNPPTFGGGTKVEIKGGSEGKSSGSGSESKSTGGSQVQLVQSGAEVKKPGSSVKVSCKASGYTFTRSTMHWVRQAPGQGLEWMGYINPSSAYTNYNQKFQGRVTLTADKSTSTAYMELSSLRSEDTAVYYCARPQVHYDYNGFPYWGQGTLVTVSS"}, "B10": {"name": "CD3B1134 (scFv)", "scFv": "DIQLTQSPSSLSASVGDRVTITCSASSSVSYMNWYQQKPGTSPKRLIYDSSKLASGVPSRFSGSGSGTDYTLTISSLQPEDFATYYCQQWSRNPPTFGGGTKVEIKGGSEGKSSGSGSESKSTGGSEVQLVQSGAEVKKPGESLRISCKASGYTFTRSTMHWVRQMPGKGLEWMGYINPSSAYTNYNPSFQGHVTLSADKSISTAYLQWSSLKASDTAMYYCARPQVHYDYNGFPYWGQGTLVTVSS"}}, "key": {"[1]": {"target": "T1, TRCW5 antigen (CD3δε-Fc-Avi) (biotinylated (site not stated))", "T1 construct": "also called recombinant CD3", "T1 sequence (chain, as listed by the source mutant limits assumed)": "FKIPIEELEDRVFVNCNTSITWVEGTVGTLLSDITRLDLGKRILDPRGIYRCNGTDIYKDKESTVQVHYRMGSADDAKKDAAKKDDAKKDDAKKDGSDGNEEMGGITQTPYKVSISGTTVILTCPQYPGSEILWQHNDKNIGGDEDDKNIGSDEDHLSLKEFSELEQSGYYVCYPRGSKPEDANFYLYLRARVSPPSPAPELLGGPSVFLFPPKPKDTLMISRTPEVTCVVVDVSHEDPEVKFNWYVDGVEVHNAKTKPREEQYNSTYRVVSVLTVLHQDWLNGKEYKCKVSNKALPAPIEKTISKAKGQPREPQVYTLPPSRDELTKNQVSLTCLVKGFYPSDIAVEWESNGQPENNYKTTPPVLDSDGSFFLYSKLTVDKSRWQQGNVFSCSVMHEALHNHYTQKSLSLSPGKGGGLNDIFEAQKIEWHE", "experiment": "ELISA, E. coli scFv on biotinylated TRCW5", "experimental": "Briefly, DNA was transformed into an E. coli expression vector to generate scFv molecules having a C-terminal HA-tag, and cells were plated on 2×YT/Carb/2% Glucose grown overnight at 37 C. Colonies were picked and transferred 50 ul of overnight growth cultures to new plates containing 500 ul of 2×YT/Carb/0.1% Glucose, grown for 6-7 hr, and combined with 50 ul 2×YT medium containing 1×carbenicillin & 12×IPTG. Cultures were incubated with shaking ˜600 RPM 30° C. overnight. Streptavidin coated plates were bound with 50 μL of biotinylated TRCW5 antigen (CD3δε-Fc-Avi, SEQ ID NO: 39) at the concentrations indicated in the ELISA graph for 45 min at room temperature with shaking (FIG. 1, FIG. 3, FIG. 4) followed by washing 3× with 1×TBST. Plates were blocked with 200 ul 3% Milk in 1×TBST for ˜45 mins at room temperature followed by washing 3× with 1×TBST. E. coli cultures were harvested by centrifugation at […] for 10 mins 4° C. and 50 μL of supernatant was transferred into CD3-coated plates followed by incubation at 4 C for 45 min. Plates were washed 3× with 1×TBST. Bound scFv was detected with Chicken Polyclonal Anti-HA-HRP (ab1190) [1:1000] for ˜45 mins RT and luminescence detected with chemi-luminescent substrate."}, "[2]": {"target": "T1, TRCW5 antigen (CD3δε-Fc-Avi)", "experiment": "ELISA after heat"}, "[3]": {"target": "T2, recombinant cynomolgus PSMA (cynomolgus, UniProt A0A2K5VNZ0 44-750)", "T2 construct": "also called cy PSMA; cyno PSMA", "experiment": "SPR (Biacore 8K), antibody captured on anti-Fc, PSMA in solution; average of 2", "experimental": "(§1) The binding affinity of anti-PSMA to the recombinant human or cynomolgus PSMA was determined by surface plasmon resonance (SPR) using a Biacore 8K instrument (ELN PSMA-00721). The antibodies were captured on a goat anti-Fc antibody-modified C1 chip and titrated with 3-fold serial dilutions of PSMA antigen spanning concentrations of 100 nM to 3.7 nM (human PSMA) or […] 22.2-600 nM for cyno PSMA. The association and dissociation were monitored for 3 and 60 minutes, respectively, using a flow rate of 50 μL/min. Raw binding data was referenced by subtracting the analyte binding signals from blanks and analyzed using a 1:1 Langmuir binding model by the Biacore Insight evaluation software to obtain the kinetics which were used to calculate the binding affinity. The anti-PSMA were captured using an anti-human Fc antibody and the antigens were injected in solution."}, "recombinant human PSMA": {"target": "T3, recombinant human PSMA (human, UniProt Q04609 44-750)", "T3 construct": "also called hu PSMA; prostate-specific membrane antigen", "T3 sequence (Q04609 44-750 limits assumed)": "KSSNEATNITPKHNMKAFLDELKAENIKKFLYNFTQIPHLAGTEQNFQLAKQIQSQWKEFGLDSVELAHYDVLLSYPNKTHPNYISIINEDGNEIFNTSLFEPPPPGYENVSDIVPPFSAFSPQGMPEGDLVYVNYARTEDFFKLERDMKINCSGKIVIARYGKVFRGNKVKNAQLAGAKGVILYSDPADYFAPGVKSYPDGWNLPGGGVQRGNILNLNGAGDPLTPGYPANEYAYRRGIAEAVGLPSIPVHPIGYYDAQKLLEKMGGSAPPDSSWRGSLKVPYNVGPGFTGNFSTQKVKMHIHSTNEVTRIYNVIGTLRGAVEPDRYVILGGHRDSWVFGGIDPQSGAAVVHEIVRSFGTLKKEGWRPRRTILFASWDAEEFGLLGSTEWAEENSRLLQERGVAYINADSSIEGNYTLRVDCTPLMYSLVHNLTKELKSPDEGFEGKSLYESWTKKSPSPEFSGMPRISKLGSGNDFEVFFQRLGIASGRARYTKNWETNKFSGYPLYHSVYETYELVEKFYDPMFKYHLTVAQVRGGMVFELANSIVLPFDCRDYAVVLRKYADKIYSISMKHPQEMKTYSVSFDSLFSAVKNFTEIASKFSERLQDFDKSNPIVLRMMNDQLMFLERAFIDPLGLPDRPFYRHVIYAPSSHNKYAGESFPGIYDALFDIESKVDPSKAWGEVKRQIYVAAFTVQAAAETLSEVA", "experiment": "SPR (Biacore 8K), antibody captured on anti-Fc, PSMA in solution; average of 2", "experimental": "as §1"}}}
{"binder": "B1", "values": [{"measurement": "EC50", "setting": "[1]", "value": "~1100", "unit": "pM"}]}
{"binder": "B2", "values": [{"measurement": "EC50", "setting": "[1]", "value": 1040, "unit": "pM"}]}
{"binder": "B3", "values": [{"measurement": "EC50", "setting": "[1]", "value": 712, "unit": "pM"}]}
{"binder": "B4", "values": [{"measurement": "% Retained 55° C.", "setting": "[2]", "value": 10, "unit": "%"}, {"measurement": "% Retained 60° C.", "setting": "[2]", "value": 2, "unit": "%"}, {"measurement": "% Retained 65° C.", "setting": "[2]", "value": 3, "unit": "%"}, {"measurement": "EC50", "setting": "[1]", "value": "~437", "unit": "pM"}]}
{"binder": "B5", "values": [{"measurement": "Kd", "setting": "[3]", "value": 2200, "unit": "pM"}, {"measurement": "koff", "setting": "[3]", "value": 0.00323, "unit": "s⁻¹"}, {"measurement": "kon", "setting": "[3]", "value": "1.46e+06", "unit": "M⁻¹ s⁻¹"}, {"measurement": "Kd", "setting": "recombinant human PSMA", "value": 382, "unit": "pM"}, {"measurement": "koff", "setting": "recombinant human PSMA", "value": "8.89e-05", "unit": "s⁻¹"}, {"measurement": "kon", "setting": "recombinant human PSMA", "value": 232000, "unit": "M⁻¹ s⁻¹"}]}
{"binder": "B6", "values": [{"measurement": "Kd", "setting": "[3]", "value": 5070, "unit": "pM"}, {"measurement": "koff", "setting": "[3]", "value": 0.0019, "unit": "s⁻¹"}, {"measurement": "kon", "setting": "[3]", "value": 587000, "unit": "M⁻¹ s⁻¹"}, {"measurement": "Kd", "setting": "recombinant human PSMA", "value": 395, "unit": "pM"}, {"measurement": "koff", "setting": "recombinant human PSMA", "value": "8.82e-05", "unit": "s⁻¹"}, {"measurement": "kon", "setting": "recombinant human PSMA", "value": 224000, "unit": "M⁻¹ s⁻¹"}]}
{"binder": "B7", "values": [{"measurement": "% Retained 55° C.", "setting": "[2]", "value": 90, "unit": "%"}, {"measurement": "% Retained 60° C.", "setting": "[2]", "value": 11, "unit": "%"}, {"measurement": "% Retained 65° C.", "setting": "[2]", "value": 1, "unit": "%"}, {"measurement": "EC50", "setting": "[1]", "value": 746, "unit": "pM"}]}
{"binder": "B8", "values": [{"measurement": "EC50", "setting": "[1]", "value": 1140, "unit": "pM"}]}
{"binder": "B9", "values": [{"measurement": "EC50", "setting": "[1]", "value": 958, "unit": "pM"}]}
{"binder": "B10", "values": [{"measurement": "EC50", "setting": "[1]", "value": "~6.3", "unit": "pM"}]}
